Measurements taken from patent publication US20190177416A1 (NANOMAB TECHNOLOGY, published 2019).
Changes are numbered by the printed parent chain.

B1: SEQ ID NO 71 (VHH)
VHH: QVQLQESGGGLVQPGGSLRLSCAASGFTFSSYDMSWVRQAPGKGIEWVSVINSGGSNTDYADSVKGRFTISRDNAKNTLYLQMNSLKTEDTAVYYCATAWMGYSDYLDGIARGQGTQVTVSS
notes: pMECS-expressed; also called VHH numbered 71
B2: SEQ ID NO 75 (VHH)
VHH: QVQLQESGGGSVQTGGSLRLSCAASTSIYSNNYMAWFRQAPGKGREGVAAVYIGDGRPYYADSAKGRFTISLDSAKNTVYLHMNSLKPEDTAMYYCAAAPGPLSRHYWYTSANYDYWGPGTQVTVSS
notes: pMECS-expressed; also called VHH numbered 75
B3: SEQ ID NO 80 (VHH)
VHH: B2 VHH with A23V, R38S, G54D, A64V, H82Q, H106S, P119Q
notes: pMECS-expressed; also called VHH numbered 80
B4: SEQ ID NO 82 (VHH)
VHH: B2 VHH with A23T, R38S, G54D, A64V, H82Q, H106N, P119Q
notes: pMECS-expressed; also called VHH numbered 82
B5: SEQ ID NO 85 (VHH)
VHH: B2 VHH with R38S, G54A, G56D, A64V, H82Q, H106N, P119Q
notes: pMECS-expressed; also called VHH numbered 85
B6: SEQ ID NO 86 (VHH)
VHH: B2 VHH with E6D, N31I, R38S, I53T, A64V, H82Q, H106N, P119Q
notes: pMECS-expressed; also called VHH numbered 86
B7: SEQ ID NO 81 (VHH)
VHH: B2 VHH with R38S, G54D, P58T, A64V, H82Q, H106N, P119Q
notes: pMECS-expressed; also called VHH numbered 81
B8: SEQ ID NO 76 (VHH)
VHH: B2 VHH with A40V, G54D, P58T, A64V, H82Q
notes: pMECS-expressed; also called VHH numbered 76
B9: SEQ ID NO 83 (VHH)
VHH: QVQLQESGGGLVQTGGSLRLSCAASTSIYSNNYLAWFSQAPGKGREGVAAVYIGDGRPYYADSVKGRFPISLNSAQNKVYLQMNSLKPEDTAMYYCAAAPGPLSRNYWYTSANYDYWGQGTQVTVSS
notes: pMECS-expressed; also called VHH numbered 83
B10: SEQ ID NO 84 (VHH)
VHH: B2 VHH with Y29D, G54D, A64V, H82Q
notes: pMECS-expressed; also called VHH numbered 84
B11: SEQ ID NO 77 (VHH)
VHH: B2 VHH with A23T, R38S, G54D, A64V, H82Q, H106N, P119Q
notes: pMECS-expressed; also called VHH numbered 77
B12: SEQ ID NO 78 (VHH)
VHH: B2 VHH with I28L, N31Y, R38S, I53V, A64V, H82Q, R105H, H106N, P119Q
notes: pMECS-expressed; also called VHH numbered 78
B13: SEQ ID NO 18 (VHH)
VHH: QVQLQESGGGSVQAGGSLRLSCAASGYTYSSDGMGWFRQTPGKEREGVAAISPTGRRTEYADSVKGRFTISRDNNKNMLSLQMNSLKPEDTGMYYCAREGSWSFSLANSAVRSWGQGTQVTVSS
notes: pMECS-expressed; also called VHH numbered 18
B14: SEQ ID NO 20 (VHH)
VHH: QVQLQESGGGLVQPGGSLRLSCAASGFTGSIYAMSWVRQAPGKGLEWVSTISSSGGRRFYADSVKGRFTISRDNAKNTLYLQLNSLKTEDTAMYYCARCSDIYCDNGASYRGQGTQVTVSS
notes: pMECS-expressed; also called VHH numbered 20
B15: SEQ ID NO 70 (VHH)
VHH: B14 VHH with G29F, Y32R, S52N, S54G, G56D, R57S, F59Y, L79M, A97V, D105Y
notes: pMECS-expressed; also called VHH numbered 70
B16: SEQ ID NO 45 (VHH)
VHH: B14 VHH with G29F, Y32K, S52D, S54G, F59Y, N84S, Y95F, D105Y
notes: pMECS-expressed; also called VHH numbered 45
B17: SEQ ID NO 61 (VHH)
VHH: QVQLQESGGGLVQPGGSLRLSCAASGFDFSSRAMSWVRQAPGKGLEWVSTINSGGGSRYYADSVKGRFTTSRDNAKNTLALQLNSLKTEDTAMYYCARCSDIYCDNGAWYRGQGTQVTVSS
notes: pMECS-expressed; also called VHH numbered 61
B18: SEQ ID NO 74 (VHH)
VHH: B14 VHH with L11S, P14A
notes: pMECS-expressed; also called VHH numbered 74
B19: SEQ ID NO 58 (VHH)
VHH: B14 VHH with A24L, G29S, S30T, S52N, S54D, R57Y, F59Y, L86P, D105Y, A108P
notes: pMECS-expressed; also called VHH numbered 58
B20: SEQ ID NO 50 (VHH)
VHH: QVQLQESGGGLVQPGGSLRLSCIASGFTFSIMAMSWVRQAPGKGLEWVSTINSDGGKTYYADSVKGRFTISRDNAKNTLYLQLNSLRTEDMAMYYCRRCADIYCSGSGGWTGQGTQVTVSS
notes: pMECS-expressed; also called VHH numbered 50
B21: SEQ ID NO 73 (VHH)
VHH: B20 VHH with I23E, F27L, T28P, M32I, K57T, Y59H, M91T, A100T, S107F
notes: pMECS-expressed; also called VHH numbered 73
B22: SEQ ID NO 65 (VHH)
VHH: B20 VHH with I23A, M32L, V48I, S53N, D54S, K57T, Y59F, M91T, A100T, G106L
notes: pMECS-expressed; also called VHH numbered 65
B23: SEQ ID NO 72 (VHH)
VHH: B20 VHH with I23E, F27L, T28P, M32I, K57T, Y59H, M91T, A100T
notes: pMECS-expressed; also called VHH numbered 72
B24: SEQ ID NO 79 (VHH)
VHH: QVQLQESGGGLVQPGGSLRLSCAASGLPFSIIAMSWVRQAPGKGIEWVSTINSGGGTTHYADSVKGRFTISRDNAKNTLYLQLNSLRTEDTAVYYCRRCADIYCSGSGGWTGLGTQVTVSS
notes: pMECS-expressed; also called VHH numbered 79
B25: SEQ ID NO 34 (VHH)
VHH: QVQLQESGGGSVQAGGSLRLSCAASGYTRSLYCMGWFRQAPGREREGVAHVYTGDGSPYYADSVKGRFTISQDNGESTLYLQMNNLKPEDTAMYYCAAGTSALSRPYGPISYGYWYWGQGTQVTVSS
notes: pMECS-expressed; also called VHH numbered 34

These binders were tested against T1, human PD-L1 protein (coated antigen) (human, UniProt Q9NZQ7 19-238, limits assumed) (assay: PE-ELISA, crude extract on coated PD-L1).
T1 construct: Construct not described; also called PD-L1 antigen; antigenic protein PD-L1
T1 sequence (Q9NZQ7 19-238 limits assumed): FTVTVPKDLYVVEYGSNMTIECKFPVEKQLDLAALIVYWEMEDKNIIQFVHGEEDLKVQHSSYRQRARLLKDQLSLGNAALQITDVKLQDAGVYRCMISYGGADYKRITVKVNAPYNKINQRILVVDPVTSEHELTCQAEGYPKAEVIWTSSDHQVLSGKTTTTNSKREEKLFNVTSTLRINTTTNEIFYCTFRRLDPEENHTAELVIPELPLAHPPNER
Experimental: (1) From the cell culture dishes containing phage after 3-4 rounds of screening in Example 2, 1000 individual colonies were selected and inoculated into TB medium containing 100 μg/ml of ampicillin (1 liter of TB medium contains 2.3 g of potassium dihydrogen phosphate, 12.52 g of dipotassium hydrogen phosphate, 12 g of peptone, 24 g of yeast extract, 4 ml of glycerol), after growth to log phase, add a final concentration of […] of IPTG, culture at 28° C. overnight. (2) The crude antibody was obtained by the infiltration method, and the antibody was transferred to an antigen-coated ELISA plate and placed at room temperature for 1 hour. (3) Unbound antibody was washed away with PBST, and a mouse anti-HA tag antibody (anti-mouse anti-HA antibody, purchased from Beijing Kangwei Century Biotechnology Co., Ltd.) was added and placed at room temperature for 1 hour. (4) Unbound antibody was washed away with PBST, and anti-mouse alkaline phosphatase conjugate (goat anti-mouse alkaline phosphatase-labeled antibody, purchased from Amytech Co., Ltd.) was added and placed at room temperature for 1 hour. (5) Wash the unbound antibody with PBST, add alkaline phosphatase coloring solution, and read the absorbance at 405 nm on an ELISA apparatus. (6) When the OD value of the sample well is more than 3 times the OD value of the control well (Ratio+/−>3), it is judged as a positive clone hole. (7) The bacteria of the positive clone well were shaken in a LB liquid containing 100 μg per ml to extract a plasmid and perform sequencing.

| OD ratio (experimental group (A405 nm)/control group (A405 nm)) | Binder |
| --- | --- |
| > 20 | B1 |
| > 20 | B2 |
| > 20 | B3 |
| > 20 | B4 |
| > 20 | B5 |
| > 20 | B6 |
| > 20 | B7 |
| > 20 | B8 |
| > 20 | B9 |
| > 20 | B10 |
| > 20 | B11 |
| > 20 | B12 |
| > 20 | B13 |
| > 20 | B14 |
| > 20 | B15 |
| > 20 | B16 |
| > 20 | B17 |
| > 20 | B18 |
| > 20 | B19 |
| > 20 | B20 |
| > 20 | B21 |
| > 20 | B22 |
| > 20 | B23 |
| > 20 | B24 |
| > 20 | B25 |
